The record followed here is PMC8683085, “Serine ADP-ribosylation marks nucleosomes for ALC1-dependent chromatin remodeling” (eLife, 2021).

The target of the test is PARP1 (Homo sapiens, UniProt P09874). In words: PARP1 ADP-ribose chain elongation on mono-ADP-ribosylated peptide (RP-HPLC), with and without HPF1 titration. The test is classed as biochemical. The conditions noted are these: 1 μM PARP1, 180 μM H3S10ADPr1 peptide, 2 mM NAD+, 30 °C 25 min, RP-HPLC A280, n = 3. The procedure: To analyze PARP1 and PARP2 ADPr activity on peptide substrates, 2 mM NAD^+ and 1 μM stimulating DNA were combined into the ADPr reaction buffer in the presence of 0.2, 1, or 5 μM PARP1 or PARP2, in a 25 μL reaction (2 μM PARP1/2, 2 μM DNA and 50 μL reaction volume for H2B peptides). All unmodified and mono-ADP-ribosylated substrate peptides were analyzed at a concentration of 180 μM (40 μM for H2B peptides). The reaction was incubated at 30 °C for 25 min, quenched via addition of 95 μL (70 μL in case of H2B peptide reactions) of Solvent A. It was then centrifuged at 20,000 RCF for 5 min and 100 μL of the supernatant was injected into an analytical C18 column for product analysis via RP-HPLC. An elution gradient of 0–35% Solvent B over 20 min was employed to optimize separation of the poly-ADP-ribosylated peptide products. Percent substrate turnover was calculated by integrating the peaks for the starting material and each product on the RP-HPLC A280 trace, normalizing them depending on their number of ADP-ribose moieties, and calculating ratio of total product to total peptide amounts for each reaction. All reactions were performed in triplicate and error bars represent standard deviations. Individual peaks corresponding to products with unique ADP-ribose chain lengths were collected and analyzed by ESI-MS. […]
PARP1, sequence (P09874 whole entry): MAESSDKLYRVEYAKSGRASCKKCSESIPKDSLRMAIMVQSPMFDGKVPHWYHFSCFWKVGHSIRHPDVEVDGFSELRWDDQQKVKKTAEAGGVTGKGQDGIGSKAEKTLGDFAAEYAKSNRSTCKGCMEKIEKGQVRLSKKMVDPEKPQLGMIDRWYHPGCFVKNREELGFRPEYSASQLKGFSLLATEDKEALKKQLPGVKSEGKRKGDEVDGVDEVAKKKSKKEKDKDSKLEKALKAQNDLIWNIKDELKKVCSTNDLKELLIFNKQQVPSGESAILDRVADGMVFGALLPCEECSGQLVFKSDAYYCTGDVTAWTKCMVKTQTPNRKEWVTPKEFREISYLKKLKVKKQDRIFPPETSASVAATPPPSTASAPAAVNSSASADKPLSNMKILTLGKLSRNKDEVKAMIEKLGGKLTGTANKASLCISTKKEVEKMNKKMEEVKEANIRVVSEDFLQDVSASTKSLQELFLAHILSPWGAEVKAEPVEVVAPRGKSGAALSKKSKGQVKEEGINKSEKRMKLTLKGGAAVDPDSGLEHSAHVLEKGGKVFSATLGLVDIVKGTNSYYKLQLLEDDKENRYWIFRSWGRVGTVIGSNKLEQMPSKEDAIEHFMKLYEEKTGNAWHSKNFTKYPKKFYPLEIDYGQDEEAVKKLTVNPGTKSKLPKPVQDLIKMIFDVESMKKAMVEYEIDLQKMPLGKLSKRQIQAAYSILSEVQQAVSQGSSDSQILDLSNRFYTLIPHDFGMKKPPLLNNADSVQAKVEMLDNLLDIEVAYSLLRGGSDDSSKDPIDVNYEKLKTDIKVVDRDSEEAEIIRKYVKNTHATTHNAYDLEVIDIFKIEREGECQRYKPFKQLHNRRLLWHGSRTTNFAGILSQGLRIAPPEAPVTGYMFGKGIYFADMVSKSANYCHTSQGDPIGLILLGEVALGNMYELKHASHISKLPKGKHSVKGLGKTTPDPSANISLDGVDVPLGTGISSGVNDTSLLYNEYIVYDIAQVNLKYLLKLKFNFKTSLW

Changes are numbered by the printed parent chain. Names and notes keep the numbering of the source.

B1: HPF1: recombinant FLAG-HPF1, amino acids 27–346, PARP1/2-interacting protein (protein)
chain: KFCEADVSSDLRKEVENHYKLSLPEDFYHFWKFCEELDPEKPSDSLSASLGLQLVGPYDILAGKHKTKKKSTGLNFNLHWRFYYDPPEFQTIIIGDNKTQYHMGYFRDSPDEFPVYVGINEAKKNCIIVPNGDNVFAAVKLFLTKKLREITDKKKINLLKNIDEKLTEAARELGYSLEQRTVKMKQRDKKVVTKTFHGAGLVVPVDKNDVGYRELPETDADLKRICKTIVEAASDEERLKAFAPIQEMMTFVQFANDECDYGMGLELGMDLFCYGSHYFHKVAGQLLPLAYNLLKRNLFAEIIEEHLANRSQENIDQLAA
modifications: left off: 6xHis, N-terminal, cleaved | SUMO, N-terminal, cleaved | FLAG, N-terminal, kept
For B1, the IC50 (read-out: HPF1 concentration giving 50% inhibition of PARP1-catalyzed ADP-ribose polymerization) was approximately 14 µM.

B2: HPF1 mutant (D283A): binding-deficient HPF1 mutant (protein)
chain: B1 chain with D257A
modifications: left off: 6xHis, N-terminal, cleaved | SUMO, N-terminal, cleaved | FLAG, N-terminal, kept
B2: the “HPF1 concentration giving 50% inhibition of PARP1-catalyzed ADP-ribose polymerization” value is listed as “unable to appreciably inhibit”.
